Residue numbers refer to the chain shown, from its start. In names and notes the source's numbering stands. Blank lines part the entries; values can stand above or below the binder they belong to.
Biological target: T1, TNFR1 (Homo sapiens, UniProt P19438)
T1 chain: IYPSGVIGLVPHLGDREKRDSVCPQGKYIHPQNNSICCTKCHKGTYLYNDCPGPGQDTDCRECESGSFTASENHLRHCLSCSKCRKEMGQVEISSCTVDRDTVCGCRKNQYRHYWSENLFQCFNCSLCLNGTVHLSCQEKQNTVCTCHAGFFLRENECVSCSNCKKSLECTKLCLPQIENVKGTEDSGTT
Assay: yeast display SC50

apparent Kd (screen): 790 pM
B1: L75I (designed binder)
chain: MTLQELLREEALRRAEAEAFRYALELLAEKFPEQKEYLLDLAEEIESQIRSLSGVDVEDVRKFLDKEWAWVKELIAEHPAELAEVEAARAARLAELRAEVEAKVAA

apparent Kd (screen): 490 pM
B2: D40W (designed binder)
chain: B1 chain with D40W, I75L

apparent Kd (screen): 539 pM
B3: A83G (designed binder)
chain: B1 chain with I75L, A83G

apparent Kd (screen): 304 pM
B4: R13M (designed binder)
chain: B1 chain with R13M, I75L

apparent Kd (screen): 593 pM
B5: D40E (designed binder)
chain: B1 chain with D40E, I75L

apparent Kd (screen): 653 pM
B6: Y22G (designed binder)
chain: B1 chain with Y22G, I75L

apparent Kd (screen): 12500 pM
B7: L7Y (designed binder)
chain: B1 chain with L7Y, I75L

apparent Kd (screen): 2730 pM
B8: W68E (designed binder)
chain: B1 chain with W68E, I75L

apparent Kd (screen): 2480 pM
B9: I45C (designed binder)
chain: B1 chain with I45C, I75L

apparent Kd (screen): 1270 pM
B10: L75F (designed binder)
chain: B1 chain with I75F

apparent Kd (screen): 593 pM
B11: R97H (designed binder)
chain: B1 chain with I75L, R97H

apparent Kd (screen): 446 pM
B12: R61K (designed binder)
chain: B1 chain with R61K, I75L

apparent Kd (screen): 7070 pM
B13: L6K (designed binder)
chain: B1 chain with L6K, I75L

apparent Kd (screen): 593 pM
B14: P79K (designed binder)
chain: B1 chain with I75L, P79K

apparent Kd (screen): 790 pM
B15: A105P (designed binder)
chain: B1 chain with I75L, A105P

apparent Kd (screen): 593 pM
B16: E33C (designed binder)
chain: B1 chain with E33C, I75L

apparent Kd (screen): 956 pM
B17: E99S (designed binder)
chain: B1 chain with I75L, E99S

apparent Kd (screen): 956 pM
B18: K103T (designed binder)
chain: B1 chain with I75L, K103T

apparent Kd (screen): 490 pM
B19: R8E (designed binder)
chain: B1 chain with R8E, I75L

apparent Kd (screen): 539 pM
B20: E73K (designed binder)
chain: B1 chain with E73K, I75L

apparent Kd (screen): 490 pM
B21: K66S (designed binder)
chain: B1 chain with K66S, I75L

apparent Kd (screen): 446 pM
B22: M1P (designed binder)
chain: B1 chain with M1P, I75L

apparent Kd (screen): 869 pM
B23: R8A (designed binder)
chain: B1 chain with R8A, I75L

apparent Kd (screen): 2480 pM
B24: E10M (designed binder)
chain: B1 chain with E10M, I75L

apparent Kd (screen): 956 pM
B25: F31I (designed binder)
chain: B1 chain with F31I, I75L

apparent Kd (screen): 539 pM
B26: R50H (designed binder)
chain: B1 chain with R50H, I75L

apparent Kd (screen): 490 pM
B27: V71A (designed binder)
chain: B1 chain with V71A, I75L

apparent Kd (screen): 1050 pM
B28: L12P (designed binder)
chain: B1 chain with L12P, I75L

apparent Kd (screen): 5840 pM
B29: L39P (designed binder)
chain: B1 chain with L39P, I75L

apparent Kd (screen): 4830 pM
B30: I45N (designed binder)
chain: B1 chain with I45N, I75L

apparent Kd (screen): 539 pM
B31: R8V (designed binder)
chain: B1 chain with R8V, I75L

apparent Kd (screen): 653 pM
B32: R89C (designed binder)
chain: B1 chain with I75L, R89C

apparent Kd (screen): 653 pM
B33: D59V (designed binder)
chain: B1 chain with D59V, I75L

apparent Kd (screen): 1160 pM
B34: V57K (designed binder)
chain: B1 chain with V57K, I75L

apparent Kd (screen): 490 pM
B35: E43S (designed binder)
chain: B1 chain with E43S, I75L

apparent Kd (screen): 869 pM
B36: P79R (designed binder)
chain: B1 chain with I75L, P79R

apparent Kd (screen): 490 pM
B37: E77R (designed binder)
chain: B1 chain with I75L, E77R

apparent Kd (screen): 718 pM
B38: A69S (designed binder)
chain: B1 chain with A69S, I75L

apparent Kd (screen): 869 pM
B39: A98N (designed binder)
chain: B1 chain with I75L, A98N

apparent Kd (screen): 653 pM
B40: S47L (designed binder)
chain: B1 chain with S47L, I75L

apparent Kd (screen): 539 pM
B41: E86G (designed binder)
chain: B1 chain with I75L, E86G

apparent Kd (screen): 718 pM
B42: E73T (designed binder)
chain: B1 chain with E73T, I75L

apparent Kd (screen): 490 pM
B43: E101G (designed binder)
chain: B1 chain with I75L, E101G

apparent Kd (screen): 956 pM
B44: E29N (designed binder)
chain: B1 chain with E29N, I75L

apparent Kd (screen): 490 pM
B45: P32W (designed binder)
chain: B1 chain with P32W, I75L

apparent Kd (screen): 405 pM
B46: E25T (designed binder)
chain: B1 chain with E25T, I75L

apparent Kd (screen): 653 pM
B47: A76I (designed binder)
chain: B1 chain with I75L, A76I

apparent Kd (screen): 446 pM
B48: A17M (designed binder)
chain: B1 chain with A17M, I75L

apparent Kd (screen): 718 pM
B49: V104D (designed binder)
chain: B1 chain with I75L, V104D

apparent Kd (screen): 539 pM
B50: E95T (designed binder)
chain: B1 chain with I75L, E95T

apparent Kd (screen): 26900 pM
B51: L64D (designed binder)
chain: B1 chain with L64D, I75L

apparent Kd (screen): 539 pM
B52: W68L (designed binder)
chain: B1 chain with W68L, I75L

apparent Kd (screen): 593 pM
B53: E77G (designed binder)
chain: B1 chain with I75L, E77G

apparent Kd (screen): 653 pM
B54: A94K (designed binder)
chain: B1 chain with I75L, A94K

apparent Kd (screen): 1160 pM
B55: A102H (designed binder)
chain: B1 chain with I75L, A102H

apparent Kd (screen): 490 pM
B56: T2M (designed binder)
chain: B1 chain with T2M, I75L

apparent Kd (screen): 446 pM
B57: E99V (designed binder)
chain: B1 chain with I75L, E99V

apparent Kd (screen): 539 pM
B58: E29Q (designed binder)
chain: B1 chain with E29Q, I75L

apparent Kd (screen): 490 pM
B59: R14P (designed binder)
chain: B1 chain with R14P, I75L
